# Data published in the supplement of paper PMC10724198.
# ± gives the standard deviation of the averaged measurements.
# Test system: Saccharomyces cerevisiae
# Test: protein stability index of tFT-peptide fusion (C-terminal peptide) (PSI (0-1 scale)); higher = more stable (slower turnover)
# Conditions: genetic background: wild type; temperature: 30 C
# 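Also: PSI is a weighted mean of sequencing reads over stability bins, variants kept only with over 10 reads, mCherry proximal and sfGFP distal, peptide attached via GGGS linker.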
row,Sequence,protein stability index
1,LLPPFPPPSLFS,0.667 ± 0.01
2,LLPPPPPPPFSD,0.653 ± 0.079
3,LLPPPPPPPSTP,0.772 ± 0.0067
4,LLPPSPFTPPPF,0.742 ± 0.076
5,LLPVFSYVPTFH,0.648 ± 0.047
6,LLQFRATFPTTV,0.721 ± 0.036
7,LLRFRSFPSAFF,0.723 ± 0.084
8,LLRFSFLHFLFY,0.6116 ± 0.003
9,LLRSSASISLKK,0.738 ± 0.059
10,LLRVMRAVFSGL,0.623 ± 0.015
11,LLSIGTSTLFLL,0.636 ± 0.017
12,LLSLVSDFLFGL,0.698 ± 0.042
13,LLSPHPSCRPTP,0.584 ± 0.037
14,LLSPSPPLLPPL,0.763 ± 0.036
15,LLYAFSSFLRAP,0.647 ± 0.046
16,LLYSTRRCIFEF,0.645 ± 0.034
17,LNIVVTQNKNKK,0.73 ± 0.035
18,LNPPYLAPPPPF,0.739 ± 0.045
19,LPAPAGPEPPRT,0.6747 ± 0.00069
20,LPAPPPLPPPHP,0.712 ± 0.065
21,LPAPPPPPRPLA,0.683 ± 0.021
22,LPASAPFPLSPP,0.7 ± 0.035
23,LPDAPCLCSGLL,0.714 ± 0.013

row,Sequence,protein stability index
1,LPFTLLPPVLSL,0.596 ± 0.0062
2,LPGFPPSLLPRL,0.777 ± 0.059
3,LPGGVGCVGSPV,0.721 ± 0.037
4,LPGLSRATTVYP,0.679 ± 0.065
5,LPGPICSPPTGS,0.693 ± 0.011
6,LPGSLISPSSPP,0.721 ± 0.021
7,LPHLDPPPLPPP,0.6386 ± 0.0052
8,LPHSNWAGRVIE,0.703 ± 0.025
9,LPHTVITVPDPQ,0.628 ± 0.065
10,LPLHRFHPPPPY,0.715 ± 0.041
11,LPLPHALGSWSY,0.7278 ± 0.0061
12,LPLPPPPAPPPL,0.7015 ± 0.0012
13,LPLPVPSLPSAP,0.728 ± 0.019
14,LPLSFPTLPPPP,0.66 ± 0.055
15,LPLSPRCFSLLG,0.6774 ± 0.0023
16,LPLSTLGPLARL,0.725 ± 0.18
17,LPLVLSPSPPHP,0.711 ± 0.061
18,LPLVSLLCLLPR,0.668 ± 0.038
19,LPLYPFGLLLPL,0.686 ± 0.043
20,LPPAAPPPPIPA,0.599 ± 0.0079
21,LPPASSPPLLTP,0.696 ± 0.083
22,LPPAVIVCVLPS,0.586 ± 0.0097
23,LPPGSTPDSPTL,0.706 ± 0.028

row,Sequence,protein stability index
1,LPPHSPALRLPR,0.708 ± 0.0097
2,LPPIAFPPSFSP,0.69983 ± 0.00059
3,LPPLGAPQPPPP,0.731 ± 0.021
4,LPPLPLPPATTP,0.715 ± 0.04
5,LPPLPLRSLSSP,0.746 ± 0.025
6,LPPLPPLILFPL,0.684 ± 0.082
7,LPPLPPRVLFNL,0.5604 ± 0.00084
8,LPPPAAPPPALA,0.691 ± 0.032
9,LPPPHYPHHTAS,0.679 ± 0.052
10,LPPPLPPPGPPF,0.715 ± 0.013
11,LPPPPHRSRPPP,0.66 ± 0.06
12,LPPPPPPPPLLP,0.696 ± 0.0022
13,LPPPPPPPPSTP,0.734 ± 0.0076
14,LPPPPSPESPLS,0.722 ± 0.045
15,LPPPRPHLSFVP,0.72 ± 0.012
16,LPPPSPPPPLSP,0.621 ± 0.01
17,LPPPSPTGTFPP,0.7 ± 0.095
18,LPPPTLASTPPP,0.77 ± 0.045
19,LPPPVSPLVCLL,0.752 ± 0.047
20,LPPSPEPLPPRR,0.717 ± 0.059
21,LPPSPLLLTSPP,0.687 ± 0.016
22,LPPSPPLSPITS,0.55 ± 0.024
23,LPRAPPPPPLLL,0.757 ± 0.0076

row,Sequence,protein stability index
1,LPRPSALLLRSL,0.5 ± 0.12
2,LPRPYRPASTCT,0.656 ± 0.016
3,LPRRSSRRQYAA,0.751 ± 0.022
4,LPRSASLHVRPH,0.707 ± 0.023
5,LPSFPRISPPSI,0.656 ± 0.016
6,LPSLLYIFPPLS,0.6975 ± 0.0068
7,LPSPPPAPTPGP,0.681 ± 0.019
8,LPSPRPSPSRVP,0.676 ± 0.038
9,LPSTLLLPLASP,0.712 ± 0.018
10,LPTLPLPHRHHL,0.742 ± 0.0072
11,LPTSTRRGGSHG,0.6911 ± 0.0055
12,LPVCAFGWPVKS,0.6566 ± 0.0037
13,LPVDPPLGGHPT,0.655 ± 0.03
14,LPWCSTLEIRER,0.694 ± 0.011
15,LPYSPPSLTLPR,0.666 ± 0.086
16,LQFSTSMGVLMV,0.591 ± 0.01
17,LQHGKSRCAFRK,0.652 ± 0.026
18,LQPATGPQRVIS,0.665 ± 0.03
19,LQSGALEHLGAS,0.716 ± 0.074
20,LQSPGAFFSVSK,0.7 ± 0.018
21,LQTLPAPHTPFP,0.643 ± 0.039
22,LQWAAGLRTTSP,0.692 ± 0.071
23,LRARSSKPPYWL,0.737 ± 0.028

row,Sequence,protein stability index
1,LRAWPILPSRVL,0.641 ± 0.014
2,LRCRLCRFFPFL,0.714 ± 0.044
3,LRFGLRCPLYHL,0.799 ± 0.11
4,LRFLVVTGSSCS,0.665 ± 0.052
5,LRGGGGIVVGVV,0.563 ± 0.012
6,LRGGSRWVSGGY,0.636 ± 0.026
7,LRGKLGNCLGLL,0.733 ± 0.028
8,LRGLIDVKSSLK,0.758 ± 0.052
9,LRGLVGEYRRLK,0.656 ± 0.057
10,LRGVGGAGVFFG,0.675 ± 0.025
11,LRGVSGTLSSSC,0.6733 ± 0.0045
12,LRKSSIQRQKKR,0.653 ± 0.034
13,LRLAVVSHSCGA,0.639 ± 0.023
14,LRLFAGTFSGTP,0.698 ± 0.03
15,LRLIPPLTTFDY,0.645 ± 0.098
16,LRLLRPVPPRVF,0.5405 ± 0.0019
17,LRLPSPLPSPPS,0.6283 ± 0.0034
18,LRLTCRPWGLFF,0.6377 ± 0.0051
19,LRPPLPPPCPPP,0.599 ± 0.12
20,LRPPPPPASVCR,0.646 ± 0.029
21,LRPPSCCPLEIQ,0.705 ± 0.076
22,LRPQKIPASSEA,0.678 ± 0.0077
23,LRQRAHRPYFRS,0.706 ± 0.019

row,Sequence,protein stability index
1,LRSGRCFFVARL,0.73 ± 0.068
2,LRSMLRCPSPLS,0.759 ± 0.031
3,LRSPPPPAQPFV,0.69 ± 0.0075
4,LRTRKKTIDHHN,0.663 ± 0.013
5,LRVGGKRREVMG,0.709 ± 0.055
6,LRVYIRAAWVGL,0.604 ± 0.016
7,LSALGGVLWWWC,0.616 ± 0.026
8,LSARPFPPLMYS,0.6968 ± 0.0025
9,LSASALEFSSPP,0.699 ± 0.0069
10,LSFAGLPFCPGL,0.722 ± 0.13
11,LSFRPPLHPFAL,0.695 ± 0.01
12,LSFSPSFLPDSP,0.782 ± 0.062
13,LSGSSNRVLFDL,0.728 ± 0.053
14,LSHAHLSPTSSA,0.708 ± 0.088
15,LSILVGDREGSV,0.753 ± 0.13
16,LSLCYCALTSSN,0.541 ± 0.0097
17,LSLFFSSFLITF,0.628 ± 0.12
18,LSLFISPTACLT,0.584 ± 0.01
19,LSLFLAWSLFFL,0.487 ± 0.083
20,LSLFLPFRFFRS,0.699 ± 0.025
21,LSLFSLSPSFSR,0.718 ± 0.013
22,LSLPFLYCFATL,0.518 ± 0.0056
23,LSLSPLPAPCPP,0.713 ± 0.071

row,Sequence,protein stability index
1,LSLTIYVSELFR,0.587 ± 0.0084
2,LSNGVCSVSFLL,0.672 ± 0.024
3,LSPCCFLTSSSF,0.71 ± 0.033
4,LSPHPPITHPTP,0.683 ± 0.034
5,LSPLIHSPRPFA,0.752 ± 0.061
6,LSPPLPARPAAS,0.687 ± 0.034
7,LSPPLRFPPPPP,0.709 ± 0.073
8,LSPSLPLPNPSP,0.729 ± 0.044
9,LSPSMSRLWGSK,0.7365 ± 0.0033
10,LSPSSPHLPFPL,0.702 ± 0.038
11,LSRGPYRPHVNP,0.69 ± 0.051
12,LSRPPPPLLPSV,0.749 ± 0.03
13,LSRSSQPLPPPH,0.7306 ± 0.0021
14,LSSGCSVKLRAQ,0.67 ± 0.015
15,LSSGPARVMVVL,0.608 ± 0.04
16,LSSLHFRFLSAG,0.62 ± 0.062
17,LSSLLFSPLPPS,0.7593 ± 0.0019
18,LSSWTYTRFLHG,0.749 ± 0.085
19,LSTCIMFRSCGG,0.693 ± 0.041
20,LSTMPLFPSLHR,0.731 ± 0.025
21,LSVFDTSLFFSS,0.787 ± 0.099
22,LSWSLSSFACEM,0.65 ± 0.014
